According to paper doi:10.1101/2025.03.25.645380, “Extracellular Nanobody Screening using Conformationally Stable GPCR” (bioRxiv, 2025):

Tests used:
M1R-G11CT [1] = biological target: T1, M1R-G11CT (Homo sapiens (from template PDB 6OIJ), UniProt P11229, chimera); experiment: flow cytometry on cells; nanobody displayed on yeast, single colonies; stained with 10 nM fluorescence-labeled purified FLAG-tagged receptor (atropine-bound M1R-Clip1 or iperoxo-bound M1R-G11CT), Alexa Fluor-647 anti-FLAG and Alexa Fluor-488 anti-HA; selection buffer 20 mM HEPES pH 7.5, 100 mM NaCl, 0.05% MNG, 0.005% CHS, 2 mM CaCl2, 0.1% BSA, 0.2% maltose; conditions: one partner purified
T1 construct: M1 muscarinic acetylcholine receptor (M1R), N-terminal part through TM5 up to the fusion site T215 (5.65); de novo designed fusion protein (RFdiffusion, ProteinMPNN, AlphaFold2) put between T215 and A364 in place of ICL3; M1 muscarinic acetylcholine receptor (M1R), from the fusion site A364 (6.34) in TM6 to the C-terminus of the receptor; 2×GGSGG linker between the C-terminus of the receptor and …

M1R-G11CT [2] = biological target: T1, M1R-G11CT; experiment: cryo-EM structure; purified M1R-nanobody complexes on Au Quantifoil grids; Nb1B4 with M1R-G11CT and iperoxo, NbA12 with M1R-Clip1 and atropine; conditions: both partners purified
Target sequence in this assay (P11229 whole entry, stated change not applied, the tested form may be a part): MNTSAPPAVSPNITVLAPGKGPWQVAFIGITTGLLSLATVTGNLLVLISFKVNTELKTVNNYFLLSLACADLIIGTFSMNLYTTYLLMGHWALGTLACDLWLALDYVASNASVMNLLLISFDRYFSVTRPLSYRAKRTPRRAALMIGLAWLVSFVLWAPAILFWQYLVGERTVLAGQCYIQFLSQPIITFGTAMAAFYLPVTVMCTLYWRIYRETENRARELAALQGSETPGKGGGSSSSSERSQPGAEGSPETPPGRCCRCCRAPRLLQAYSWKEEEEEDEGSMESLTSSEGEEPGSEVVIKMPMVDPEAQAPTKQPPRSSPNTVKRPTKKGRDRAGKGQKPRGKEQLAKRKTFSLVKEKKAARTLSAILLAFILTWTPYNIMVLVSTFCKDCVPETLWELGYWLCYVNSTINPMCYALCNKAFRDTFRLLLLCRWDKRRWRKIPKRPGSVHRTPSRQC

| binding result (M1R-G11CT [1]) | binding result (M1R-G11CT [2]) | Binder |
| --- | --- | --- |
| binds | – | Nb1B4 displayed on yeast (VHH, Yeast display fusion; also called active-state selective nanobody) VHH: QVQLQESGGGLVQAGGSLRLSCAASGSIFYGYYMGWYRQAPGKEREFVATINYGASTNYADSVKGRFTISRDNAKNTVYLQMNSLKPEDTAVYYCAVRRVYVYVQRYYHYYWGQGTQVTVSS |
| – | binds | Nb1B4, purified (VHH, also called active-state selective nanobody; source: E. coli BL21(DE3) periplasm or HEK293F supernatant, purified (Ni-NTA, SEC)) VHH: QVQLQESGGGLVQAGGSLRLSCAASGSIFYGYYMGWYRQAPGKEREFVATINYGASTNYADSVKGRFTISRDNAKNTVYLQMNSLKPEDTAVYYCAVRRVYVYVQRYYHYYWGQGTQVTVSS |
